Patent US20190085097A1 (published 2019)

Assays:
[1] = molecular target: T1, human plasminogen (human, UniProt P00747 20-810); assay: saturation binding ELISA, human plasminogen coated at 2 ug/ml, one-site hyperbola fit
T1 construct: also called h Pg
Experimental: Saturation binding assay. Saturation binding assays were performed by ELISA in 96-well plates coated with 2 ug/ml of plasmin or plasminogen at room temperature for 1 hour. Wells were washed with PBS-T: (10 mM phosphate buffer pH 7.4, 150 mM NaCl, 0.05% Tween 20) six times. Non-specific protein binding sites were blocked with 1% BSA for 1 hour at room temperature. After washing the plate as above, various concentrations of antibody (0.002 to 100 ug/ml) were added to the plate in duplicate and for 1 hour at room temperature. The plate was washed and horseradish peroxidase (HRP) conjugated goat anti-mouse secondary antibody (1:8000, Santa Cruz, Dallas, Tex.) was added to the plate. After 1 hour incubation at room temperature, the plate was washed and TMB was added. The absorbance was then read at 370 nm.

[2] = molecular target: human plasmin (human, UniProt P00747 97-810, limits assumed); assay: cell-based or functional assay
[3] = molecular target: human tPA (human, UniProt P00750 36-562); assay: ELISA, antigen coated at 10 ug/ml, antibody supernatant, compared with anti-digoxin control
Experimental: (§1) Then goat anti mouse antibody conjugated with HRP (1:5000, Sc-2005, Santa Cruz) was then added. The plate was washed after incubation for 1 h. TMB was added to the wells and absorbance at 370nm was recorded.

[4] = molecular target: T2, bovine serum albumin (bovine, UniProt P02769 25-607); assay: as above
T2 construct: also called BSA
Experimental: as §1

[5] = molecular target: T3, mouse plasminogen (mouse, UniProt P20918 20-812); assay: as above
T3 construct: also called mouse (m) Pg
Experimental: as §1

T2 sequence (P02769 25-607 limits assumed): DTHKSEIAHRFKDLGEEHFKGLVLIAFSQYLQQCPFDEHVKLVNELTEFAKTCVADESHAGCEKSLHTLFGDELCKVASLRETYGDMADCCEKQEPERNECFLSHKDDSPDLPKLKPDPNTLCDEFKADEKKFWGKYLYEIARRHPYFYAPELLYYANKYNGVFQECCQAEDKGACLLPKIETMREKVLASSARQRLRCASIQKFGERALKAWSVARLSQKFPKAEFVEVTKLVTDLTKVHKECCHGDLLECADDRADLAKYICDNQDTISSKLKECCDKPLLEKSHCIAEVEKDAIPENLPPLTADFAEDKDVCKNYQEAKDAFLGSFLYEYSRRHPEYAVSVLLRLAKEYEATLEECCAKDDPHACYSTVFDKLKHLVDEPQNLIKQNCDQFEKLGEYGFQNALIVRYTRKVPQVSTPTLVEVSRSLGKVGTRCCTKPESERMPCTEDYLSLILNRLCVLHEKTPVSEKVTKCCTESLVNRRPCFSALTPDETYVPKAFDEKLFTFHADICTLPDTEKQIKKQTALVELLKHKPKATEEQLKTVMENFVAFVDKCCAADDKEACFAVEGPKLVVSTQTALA
Chain of human plasmin (P00747 97-810 limits assumed): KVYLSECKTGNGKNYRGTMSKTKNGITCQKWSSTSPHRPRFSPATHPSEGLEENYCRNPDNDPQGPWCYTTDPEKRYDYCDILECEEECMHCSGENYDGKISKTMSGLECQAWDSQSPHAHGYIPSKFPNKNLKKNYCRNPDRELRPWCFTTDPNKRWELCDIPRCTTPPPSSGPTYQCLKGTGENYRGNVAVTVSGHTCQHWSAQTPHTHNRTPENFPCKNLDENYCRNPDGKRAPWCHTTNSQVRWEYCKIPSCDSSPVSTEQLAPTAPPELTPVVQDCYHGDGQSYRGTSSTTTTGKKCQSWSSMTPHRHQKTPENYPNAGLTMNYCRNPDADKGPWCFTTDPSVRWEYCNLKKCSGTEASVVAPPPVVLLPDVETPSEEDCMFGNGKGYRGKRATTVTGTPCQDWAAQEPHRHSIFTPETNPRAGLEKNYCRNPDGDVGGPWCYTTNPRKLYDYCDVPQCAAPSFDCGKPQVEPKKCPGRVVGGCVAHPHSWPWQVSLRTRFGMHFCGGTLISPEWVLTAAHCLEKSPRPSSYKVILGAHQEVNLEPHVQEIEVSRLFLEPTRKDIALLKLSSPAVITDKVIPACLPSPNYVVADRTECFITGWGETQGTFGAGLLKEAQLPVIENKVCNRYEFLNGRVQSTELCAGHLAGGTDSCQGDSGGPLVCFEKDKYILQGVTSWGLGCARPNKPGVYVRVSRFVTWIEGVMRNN
Chain of human tPA (P00750 36-562 limits assumed): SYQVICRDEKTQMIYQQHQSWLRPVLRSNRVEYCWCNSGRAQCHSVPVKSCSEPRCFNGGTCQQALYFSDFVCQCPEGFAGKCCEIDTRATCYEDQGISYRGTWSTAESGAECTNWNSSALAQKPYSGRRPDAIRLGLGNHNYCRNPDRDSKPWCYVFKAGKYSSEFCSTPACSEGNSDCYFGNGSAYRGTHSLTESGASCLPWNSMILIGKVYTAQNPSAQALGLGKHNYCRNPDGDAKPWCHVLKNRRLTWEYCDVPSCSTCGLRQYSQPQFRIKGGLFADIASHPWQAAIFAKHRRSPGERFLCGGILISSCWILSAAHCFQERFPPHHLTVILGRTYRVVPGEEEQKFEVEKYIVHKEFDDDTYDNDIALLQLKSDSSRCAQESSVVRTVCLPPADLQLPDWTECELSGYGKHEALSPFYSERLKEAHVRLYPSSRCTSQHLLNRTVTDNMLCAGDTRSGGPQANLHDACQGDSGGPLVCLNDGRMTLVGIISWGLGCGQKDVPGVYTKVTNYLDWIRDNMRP
T1 sequence (P00747 20-810 limits assumed): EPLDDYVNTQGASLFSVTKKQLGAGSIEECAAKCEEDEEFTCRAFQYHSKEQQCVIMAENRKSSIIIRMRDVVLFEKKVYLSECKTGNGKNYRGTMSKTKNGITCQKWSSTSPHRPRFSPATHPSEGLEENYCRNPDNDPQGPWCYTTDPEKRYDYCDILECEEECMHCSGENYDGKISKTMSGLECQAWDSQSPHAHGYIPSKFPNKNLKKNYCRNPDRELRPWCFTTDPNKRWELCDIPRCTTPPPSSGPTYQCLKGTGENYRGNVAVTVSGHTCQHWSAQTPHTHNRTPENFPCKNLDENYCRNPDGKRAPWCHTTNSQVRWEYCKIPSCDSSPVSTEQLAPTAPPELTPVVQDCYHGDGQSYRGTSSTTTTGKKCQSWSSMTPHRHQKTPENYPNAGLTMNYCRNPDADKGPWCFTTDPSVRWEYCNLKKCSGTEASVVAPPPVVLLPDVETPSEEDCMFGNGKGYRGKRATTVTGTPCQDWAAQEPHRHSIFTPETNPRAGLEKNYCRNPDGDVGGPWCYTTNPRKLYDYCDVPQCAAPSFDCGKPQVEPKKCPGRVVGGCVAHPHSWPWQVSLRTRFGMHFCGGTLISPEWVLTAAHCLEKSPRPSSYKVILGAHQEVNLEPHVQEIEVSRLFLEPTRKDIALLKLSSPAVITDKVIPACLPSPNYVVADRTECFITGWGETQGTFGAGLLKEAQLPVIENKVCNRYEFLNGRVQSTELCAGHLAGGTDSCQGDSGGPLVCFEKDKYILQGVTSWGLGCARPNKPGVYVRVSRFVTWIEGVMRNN
T3 sequence (P20918 20-812 limits assumed): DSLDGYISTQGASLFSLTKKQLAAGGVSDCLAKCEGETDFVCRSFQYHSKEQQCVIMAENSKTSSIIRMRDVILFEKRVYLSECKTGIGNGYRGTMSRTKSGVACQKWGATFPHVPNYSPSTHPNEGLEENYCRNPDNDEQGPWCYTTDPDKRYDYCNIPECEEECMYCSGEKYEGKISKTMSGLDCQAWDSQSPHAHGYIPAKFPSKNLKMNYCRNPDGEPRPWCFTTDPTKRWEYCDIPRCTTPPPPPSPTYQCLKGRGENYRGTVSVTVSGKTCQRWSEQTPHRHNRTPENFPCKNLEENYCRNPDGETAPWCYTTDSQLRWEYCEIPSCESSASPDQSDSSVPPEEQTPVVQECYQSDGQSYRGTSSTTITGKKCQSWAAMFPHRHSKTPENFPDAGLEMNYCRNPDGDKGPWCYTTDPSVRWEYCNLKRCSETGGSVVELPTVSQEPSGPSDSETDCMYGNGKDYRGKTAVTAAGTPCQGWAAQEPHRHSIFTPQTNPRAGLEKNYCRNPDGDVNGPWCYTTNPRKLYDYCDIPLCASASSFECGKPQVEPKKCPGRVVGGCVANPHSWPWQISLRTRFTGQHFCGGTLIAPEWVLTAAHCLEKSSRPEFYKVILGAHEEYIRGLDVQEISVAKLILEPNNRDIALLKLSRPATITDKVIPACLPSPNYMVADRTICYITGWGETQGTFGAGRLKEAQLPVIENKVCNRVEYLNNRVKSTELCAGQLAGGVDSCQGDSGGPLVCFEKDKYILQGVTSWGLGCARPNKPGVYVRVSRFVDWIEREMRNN

Kd [1]: 3.4 nM
plasmin-mediated fibrinolysis of human fibrin clots (125I-fibrin release, tPA) [2]: ~5000 fold more potent than EACA
binding result [3]: no binding
binding result [4]: no binding
binding result [5]: no binding
B1: monoclonal antibody plasmin inhibitor (Pi) (antibody, mouse IgG1, kappa, V domains shown)
VH: EVKLLESGGGLVQPGGSLKLSCAASGFDFSRYWMSWVRQAPGKGLEWIGEINPDSSTINYTPSLKDKFIISRDNAKNSLYLQMSKVRSEDTALYYCASYCGYSYDALDCWGQGTSVTVSS
VL: DIQMTQSPSSLSASLGGKVSITCKASQDINKYISWYQHKPGKGPRLLIHYTSTLQPGIPSRFSGSGSGRDYSFSISNLEPEDIATYYCLQYDNLYTFGGGTKLEIKR
notes: Mouse hybridoma IgG purified from supernatant; also called Pi IgG; Pi MAb38
